{"source": "patent US20240270818A1", "about": "(PETMEDIX, published 2024)", "binders": {"B1": {"name": "PetML 119-S109Y (canine p75NTR ECD S109Y-canine IgGB wt Fc) (Fc fusion)", "chain": "KEACPTGLYTHSGECCKACNLGEGVAQPCGANQTVCEPCLDSVTFSDVVSATEPCKPCTECVGLQSMSAPCVEADDAVCRCAYGYYQDETTGRCEACRVCEAGSGLVFYCQDRQNTVCEECPDGTYSDEANHVDPCLPCTVCEDTERQLRECTRWADAECEEIPGRGGGGRENGRVPRPPDCPKCPAPEMLGGPSVFIFPPKPKDTLLIARTPEVTCVVVDLDPEDPEVQISWFVDGKQMQTAKTQPREEQFNGTYRVVSVLPIGHQDWLKGKQFTCKVNNKALPSPIERTISKARGQAHQPSVYVLPPSREELSKNTVSLTCLIKDFFPPDIDVEWQSNGQQEPESKYRTTPPQLDEDGSYFLYSKLSVDKSRWQRGDTFICAVMHEALHNHYTQKSLSHSPGK", "notes": "Signal peptide (first 19 residues) left out as for m1"}, "B2": {"name": "PetML 119-V133R (canine p75NTR ECD V133R-canine IgGB wt Fc) (Fc fusion)", "chain": "B1 chain with Y109S, V133R", "notes": "as for B1"}, "B3": {"name": "PetML 119-S109H (canine p75NTR ECD S109H-canine IgGB wt Fc) (Fc fusion)", "chain": "B1 chain with Y109H", "notes": "Signal peptide left out as for m1; If the listing holds it too, the entry is 425 residues long"}, "B4": {"name": "PetML 119 (canine p75NTR ECD-canine IgGB wt Fc protein fusion) (Fc fusion)", "chain": "KEACPTGLYTHSGECCKACNLGEGVAQPCGANQTVCEPCLDSVTFSDVVSATEPCKPCTECVGLQSMSAPCVEADDAVCRCAYGYYQDETTGRCEACRVCEAGSGLVFSCQDRQNTVCEECPDGTYSDEANHVDPCLPCTVCEDTERQLRECTRWADAECEEIPGGGGRENGRVPRPPDCPKCPAPEMLGGPSVFIFPPKPKDTLLIARTPEVTCVVVDLDPEDPEVQISWFVDGKQMQTAKTQPREEQFNGTYRVVSVLPIGHQDWLKGKQFTCKVNNKALPSPIERTISKARGQAHQPSVYVLPPSREELSKNTVSLTCLIKDFFPPDIDVEWQSNGQQEPESKYRTTPPQLDEDGSYFLYSKLSVDKSRWQRGDTFICAVMHEALHNHYTQKSLSHSPGK", "notes": "The end, 422, is my own count; also called WT molecule"}, "B5": {"name": "PetML 119-E75T (canine p75NTR ECD E75T-canine IgGB wt Fc) (Fc fusion)", "chain": "B1 chain with D75T, Y109S", "notes": "as for B1"}, "B6": {"name": "PetML 119-D134L (canine p75NTR ECD D134L-canine IgGB wt Fc) (Fc fusion)", "chain": "B1 chain with Y109S, D134L", "notes": "as for B1"}, "B7": {"name": "Bedinvetmab (antibody, INN chains, looked up, V domains shown)", "VH": "EVQLVESGGDLVKPGGSLRLSCVASGFTFSSHGMHWVRQSPGKGLQWVAVINSGGSSTYYTDAVKGRFTISRDNAKNTVYLQMNSLRAEDTAMYYCAKESVGGWEQLVGPHFDYWGQGTLVIVSS", "VL": "QSVLTQPTSVSGSLGQRVTISCSGSTNNIGILGASWYQLFPGKAPKLLVYGNGNRPSGVPDRFSGADSGDSVTLTITGLQAEDEADYYCQSFDTTLGAHVFGGGTHLTVL"}}, "note": "Positions count from the first letter of the chain named. Names and notes keep the numbering of the source."}
{"biological_target": "T1, rat Nerve Growth Factor (rat, UniProt P25427 122-241, limits assumed)", "T1 construct": "Bought recombinant protein; also called rNGF; rat NGF", "T1 sequence (P25427 122-241 limits assumed)": "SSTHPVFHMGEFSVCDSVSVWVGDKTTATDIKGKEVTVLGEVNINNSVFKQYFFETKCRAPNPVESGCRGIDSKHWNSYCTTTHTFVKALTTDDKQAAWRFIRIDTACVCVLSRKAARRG", "test": "SPR (Biacore 8K), fusion captured on Protein A chip", "description": "(§1) Binding affinity of fusion proteins to human and rat NGF was assessed using Biacore 8K (Cytiva). Briefly, Protein A Sensor Chip (Cytiva) was docked into Biacore 8K, equilibrated for 30′ at RT and then Running Buffer (10 mM HEPES pH7.4 150 mM NaCl 3 mM EDTA and 0.005% Tween20) was applied to the SPR chip surface.\n(§2) These were immobilised using 90 see association at 10 uL/min as capturing step, followed by injection of running buffer to remove any unbound product.\n(§3) Kinetics were assessed using multi-cycle kinetics with capture step method (30 see association-300 see dissociation) followed by regeneration step (0.1M Glycine pH2.2 contact time 60 see FR 30 uL/min). Kinetics quantification have been performed using Biacore Insight following standard analyses methods."}
{"binder": "B1", "binding result": "binds"}
{"binder": "B2", "binding result": "binds"}
{"binder": "B3", "binding result": "binds"}
{"binder": "B4", "binding result": "binds"}
{"biological_target": "T2, human Nerve Growth Factor (human, UniProt P01138 122-241)", "T2 construct": "Bought recombinant protein; also called hNGF; human NGF", "T2 sequence (P01138 122-241 limits assumed)": "as the sequence (P25427 122-241 limits assumed) above, with T3S, V6I, M9R, T37M, A60D, E65D, T92M, D94G, A117V, G120A counted along it", "test": "SPR (Biacore 8K), fusion captured on Protein A chip", "description": "as §1, §2, §3", "units": {"fold reduced affinity relative to PetML 119 wt": "fold"}}
{"binder": "B5", "fold reduced affinity relative to PetML 119 wt": 40}
{"binder": "B6", "fold reduced affinity relative to PetML 119 wt": 20}
{"biological_target": "T2, human Nerve Growth Factor", "test": "cell-based or functional assay", "units": {"IC50 (nM), inhibition of TF-1 cell proliferation": "nM", "ICMAX (%), inhibition of TF-1 cell proliferation": "%"}}
{"binder": "B1", "IC50 (nM), inhibition of TF-1 cell proliferation": 2.15, "ICMAX (%), inhibition of TF-1 cell proliferation": 93.5}
{"binder": "B5", "IC50 (nM), inhibition of TF-1 cell proliferation": 18.2, "ICMAX (%), inhibition of TF-1 cell proliferation": 72.5}
{"binder": "B2", "IC50 (nM), inhibition of TF-1 cell proliferation": 5.06, "ICMAX (%), inhibition of TF-1 cell proliferation": 80.5}
{"binder": "B6", "IC50 (nM), inhibition of TF-1 cell proliferation": 329, "ICMAX (%), inhibition of TF-1 cell proliferation": 70.5}
{"binder": "B3", "IC50 (nM), inhibition of TF-1 cell proliferation": 0.17, "ICMAX (%), inhibition of TF-1 cell proliferation": 88.5}
{"binder": "B4", "IC50 (nM), inhibition of TF-1 cell proliferation": 4.46, "ICMAX (%), inhibition of TF-1 cell proliferation": 73.1}
{"biological_target": "NGF (species not stated at the place) (Homo sapiens (Human)) (UniProt P01138)", "test": "cell-based or functional assay", "units": {"Bottom (%), PathHunter TrkA activation assay": "%", "Top (%), PathHunter TrkA activation assay": "%"}}
{"binder": "B7", "Bottom (%), PathHunter TrkA activation assay": 2.11, "Top (%), PathHunter TrkA activation assay": 93.5}
{"biological_target": "NGF (species not stated at the place) (Homo sapiens (Human)) (UniProt P01138)", "test": "cell-based or functional assay", "remark": "another data set of the same source", "units": {"Bottom (%), PathHunter TrkA activation assay": "%", "Top (%), PathHunter TrkA activation assay": "%", "TrkA inhibition, PathHunter luminescence": "%"}}
{"binder": "B7", "Bottom (%), PathHunter TrkA activation assay": 5.35, "Top (%), PathHunter TrkA activation assay": 123, "TrkA inhibition, PathHunter luminescence": 100}
{"biological_target": "NGF (species not stated at the place) (Homo sapiens (Human), UniProt P01138 122-241)", "test": "cell-based or functional assay", "units": {"Bottom (%), PathHunter TrkA activation assay": "%", "IC50 (nM), PathHunter TrkA activation assay": "nM", "Top (%), PathHunter TrkA activation assay": "%"}}
{"binder": "B1", "Bottom (%), PathHunter TrkA activation assay": 7.79, "IC50 (nM), PathHunter TrkA activation assay": 2.15, "Top (%), PathHunter TrkA activation assay": 87.3}
{"binder": "B5", "Bottom (%), PathHunter TrkA activation assay": 44.5, "IC50 (nM), PathHunter TrkA activation assay": 82.6, "Top (%), PathHunter TrkA activation assay": 72.6}
{"binder": "B2", "Bottom (%), PathHunter TrkA activation assay": 14.3, "IC50 (nM), PathHunter TrkA activation assay": 2.56, "Top (%), PathHunter TrkA activation assay": 49.3}
{"binder": "B6", "Bottom (%), PathHunter TrkA activation assay": 53.7, "IC50 (nM), PathHunter TrkA activation assay": 20.8, "Top (%), PathHunter TrkA activation assay": 82.7}
{"binder": "B3", "Bottom (%), PathHunter TrkA activation assay": 10.3, "IC50 (nM), PathHunter TrkA activation assay": 2.2, "Top (%), PathHunter TrkA activation assay": 48.3}
{"binder": "B4", "Bottom (%), PathHunter TrkA activation assay": 9.5, "IC50 (nM), PathHunter TrkA activation assay": 8.04}
{"biological_target": "T2, human Nerve Growth Factor", "test": "SPR (Biacore 8K), fusion captured on Protein A chip, hNGF as analyte, multi-cycle kinetics", "description": "as §1, §2, §3", "units": {"Kd": "nM"}}
{"binder": "B1", "Kd": 0.225}
{"binder": "B5", "Kd": 12.4}
{"binder": "B2", "Kd": 0.346}
{"binder": "B6", "Kd": 6.8}
{"binder": "B3", "Kd": 0.267}
{"binder": "B4", "Kd": 0.309}
